B1: chicken ovalbumin: chicken ovalbumin (protein, UniProt P01012 2-386, looked up)
Ovalbumin: GSIGAASMEFCFDVFKELKVHHANENIFYCPIAIMSALAMVYLGAKDSTRTQINKVVRFDKLPGFGDSIEAQCGTSVNVHSSLRDILNQITKPNDVYSFSLASRLYAEERYPILPEYLQCVKELYRGGLEPINFQTAADQARELINSWVESQTNGIIRNVLQPSSVDSQTAMVLVNAIVFKGLWEKAFKDEDTQAMPFRVTEQESKPVQMMYQIGLFRVASMASEKMKILELPFASGTMSMLVLLPDEVSGLEQLESIINFEKLTEWTSSNVMEERKIKVYLPRMKMEEKYNLTSVLMAMGITDVFSSSANLSGISSAESLKISQAVHAAHAEINEAGREVVGSAEAGVDAASVSEEFRADHPFLFCIKHIATNAVLFFGRCVSP
B2: STI: soybean trypsin inhibitor (protein, UniProt P01070 25-205, looked up)
Trypsin inhibitor A: DFVLDNEGNPLENGGTYYILSDITAFGGIRAAPTGNERCPLTVVQSRNELDKGIGTIISSPYRIRFIAEGHPLSLKFDSFAVIMLCVGIPTEWSVVEDLPEGPAVKIGENKDAMDGWFRLERVSDDEFNNYKLVFCPQQAEDDKCGDIGISIDHDDGTRRLVVSKNKPLVVQFQKLDKESL
B3: proteinase K: serine protease (protein, UniProt P06873 106-384, looked up)
Proteinase K: AAQTNAPWGLARISSTSPGTSTYYYDESAGQGSCVYVIDTGIEASHPEFEGRAQMVKTYYYSSRDGNGHGTHCAGTVGSRTYGVAKKTQLFGVKVLDDNGSGQYSTIIAGMDFVASDKNNRNCPKGVVASLSLGGGYSSSVNSAAARLQSSGVMVAVAAGNNNADARNYSPASEPSVCTVGASDRYDRRSSFSNYGSVLDIFGPGTSILSTWIGGSTRSISGTSMATPHVAGLAAYLMTLGKTTAASACRYIADTANKGDLSNIPFGTVNLLAYNNYQA
B4: plasmin: serine protease (protein, UniProt P00747 20-580; P00747 581-810, looked up)
Plasmin heavy chain A: EPLDDYVNTQGASLFSVTKKQLGAGSIEECAAKCEEDEEFTCRAFQYHSKEQQCVIMAENRKSSIIIRMRDVVLFEKKVYLSECKTGNGKNYRGTMSKTKNGITCQKWSSTSPHRPRFSPATHPSEGLEENYCRNPDNDPQGPWCYTTDPEKRYDYCDILECEEECMHCSGENYDGKISKTMSGLECQAWDSQSPHAHGYIPSKFPNKNLKKNYCRNPDRELRPWCFTTDPNKRWELCDIPRCTTPPPSSGPTYQCLKGTGENYRGNVAVTVSGHTCQHWSAQTPHTHNRTPENFPCKNLDENYCRNPDGKRAPWCHTTNSQVRWEYCKIPSCDSSPVSTEQLAPTAPPELTPVVQDCYHGDGQSYRGTSSTTTTGKKCQSWSSMTPHRHQKTPENYPNAGLTMNYCRNPDADKGPWCFTTDPSVRWEYCNLKKCSGTEASVVAPPPVVLLPDVETPSEEDCMFGNGKGYRGKRATTVTGTPCQDWAAQEPHRHSIFTPETNPRAGLEKNYCRNPDGDVGGPWCYTTNPRKLYDYCDVPQCAAPSFDCGKPQVEPKKCPGR
Plasmin light chain B: VVGGCVAHPHSWPWQVSLRTRFGMHFCGGTLISPEWVLTAAHCLEKSPRPSSYKVILGAHQEVNLEPHVQEIEVSRLFLEPTRKDIALLKLSSPAVITDKVIPACLPSPNYVVADRTECFITGWGETQGTFGAGLLKEAQLPVIENKVCNRYEFLNGRVQSTELCAGHLAGGTDSCQGDSGGPLVCFEKDKYILQGVTSWGLGCARPNKPGVYVRVSRFVTWIEGVMRNN
modifications: Plasmin
notes: serine protease

Legend:
[1] = molecular target: iron-loaded abeta42 templates (Homo sapiens, UniProt P05067); assay: Binding of proteins to iron-loaded abeta42 templates; details: SDS-PAGE
Description: FIG. 46 illustrates an example involving the identification of proteins that bind to iron-loaded abeta42 templates. The iron-loaded abeta42 templates are combined with known and unknown cell extracts (CE) and subjected to CPA, as described herein. To determine which proteins successfully bind the templates, the final template complexes are suspended in denaturing sample buffer, boiled, and loaded into SDS-PAGE gel. The gels are then stained with coomassie blue or silver stain in order to visualize the binding proteins. […] In the negative control, no significant binding is observed when the proteins are incubated in the absence of the templates.
In experiments such as these, known and unknown cell extract proteins that are used for the complex formation with the aggregates are diluted in PBS to a 1 mg/ml concentration and stored at −70° C. as 50 μl aliquots. These samples are thawed on ice and centrifuged (13000 rpm, 15 min, 4° C.) to remove any precipitation. The supernatant containing soluble proteins is used to form complexes with the aggregates. Various proteins are screened against the iron loaded abeta42 aggregates for examining their binding. […] The proteins in the gels are detected using coomassie blue or silver stain (Owl silver stain, Pierce, Ill., USA). […]

[2] = tested on: iron loaded prion or abeta40 templates; assay type: binding
[3] = tested on: iron loaded abeta42 aggregates mixed with CE proteins; assay: Proteolysis of amyloid plaque complexes assembled on iron loaded abeta42 aggregates; assay type: biochemical; details: 20 ng protease, 37° C., 1 hr
Procedure: This example illustrates the use of the invention to evaluate the proteolytic degradation of the amyloid complexes. For example, iron loaded abeta42 aggregates are mixed with CE proteins, and the resulting template complexes are treated with five different serine proteases. More specifically, nine independent reactions are carried out with each containing 5.0 μg of the iron-loaded aggregates of abeta42 and 6.0 μg of the CE proteins. After incubation and washing, the complexes are suspended in 50 μl of PBS. The nine complexes are sub-divided into two groups, with six individual complexes comprising Group I and three complexes comprising Group II. In order to interrogate the role of the plasminogen (PLG) activation system, which is implicated in the catabolism of amyloid peptides as well as the pathobiology of amyloid diseases (Melchor J P et al, 2003; Van Nostrand W E et al, 1999; Kranenburg O, 2005), the Group II complexes are subjected to another cycle of binding with both PLG (0.5 μg) and BSA (0.5 μg) proteins. After binding and washing, the PLG and BSA bound plaques complexes are suspended in 50 μl of PBS.
For proteolysis analysis, five of the six Group I template complexes are incubated with 20 ng of each protease (plasnin, chymotrypsin, trypsin, proteinase K and urokinase). The remaining complex is used as a control without protease treatment. […]

iron-loaded abeta42 templates, sequence (P05067 672-713 limits assumed): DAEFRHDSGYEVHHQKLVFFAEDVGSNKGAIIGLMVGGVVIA

Molecule	Degradation of proteins bound to the aggregates [3]	further results
B1	–	Binding with iron-loaded abeta42 templates [1]: no detectable binding
B2	–	Binding with iron loaded prion or abeta40 templates [2]: no detectable binding
B3	degraded	–
B4	degraded	–
